The target in test [1] is T1, FcgRIIb (human, UniProt P31994 43-217).
T1 construct: extracellular domain; Soluble extracellular domain with C-terminal His tag, expressed in FreeStyle293 cells; also called FcγRIIb; 2b; not shown: His tag at the C terminus
T1 sequence (looked up): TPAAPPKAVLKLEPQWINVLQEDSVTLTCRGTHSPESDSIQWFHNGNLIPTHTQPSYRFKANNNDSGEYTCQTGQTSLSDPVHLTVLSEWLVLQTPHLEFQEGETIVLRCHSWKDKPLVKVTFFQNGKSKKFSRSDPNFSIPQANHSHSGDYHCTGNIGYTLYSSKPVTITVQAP
The experiment in a line: SPR (Biacore); KD of the variant for FcgRIIaR divided by its KD for FcgRIIb.

A further test addresses T2, FcgRIIaR (human, UniProt P12318 34-217).
T2 construct: extracellular domain; Soluble extracellular domain with C-terminal His tag, expressed in FreeStyle293 cells; also called FcγRIIa R; FcgRIIa type R; not shown: His tag at the C terminus
T2 sequence (looked up): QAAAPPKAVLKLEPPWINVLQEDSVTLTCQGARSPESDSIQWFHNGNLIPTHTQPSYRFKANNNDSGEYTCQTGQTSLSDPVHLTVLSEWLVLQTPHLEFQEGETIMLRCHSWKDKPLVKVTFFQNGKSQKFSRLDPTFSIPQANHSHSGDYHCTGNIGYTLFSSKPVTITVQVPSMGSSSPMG
The experiment in a line: SPR (Biacore), antibody captured on chip, FcgR extracellular domain as analyte. A general note: In SPR one partner is held on a chip, and binding of the other changes the refractive index at the surface.

Test [2] concerns the target T1, FcgRIIb. The test is described as above.
In a further test the target is T3, FcgRIIaH (human, UniProt P12318 34-217).
T3 construct: extracellular domain; Soluble extracellular domain with C-terminal His tag, expressed in FreeStyle293 cells; also called FcγRIIa H; FcgRIIa type H; not shown: His tag at the C terminus
T3 sequence (looked up): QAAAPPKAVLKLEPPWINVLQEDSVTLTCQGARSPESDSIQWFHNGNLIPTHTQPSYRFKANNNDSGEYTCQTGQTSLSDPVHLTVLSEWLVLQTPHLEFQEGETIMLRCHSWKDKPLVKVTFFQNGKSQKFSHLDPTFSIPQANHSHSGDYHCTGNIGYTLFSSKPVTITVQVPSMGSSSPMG
Described as above.

For test [3], the target named is T4, FcγRIIIa (human, UniProt P08637 17-208).
T4 construct: extracellular domain; also called FcgRIIIa; CD16A; not shown: His tag attached to the C terminus
The test can be described thus: ratio of SPR KDs: KD of GpH7-G1d/GpL16-k0 divided by KD of this antibody. The method in brief:
(§1)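 Biacore SPR at 25 °C in HBS-EP+; antibodies captured on antigen peptide-immobilized CM5 or SA chips, FcγRIIIa flowed as analyte, regeneration with 10 mM glycine-HCl pH 1.5. KD from ka and kd by global 1:1 Langmuir fitting; values are the reference antibody's KD divided by this antibody's KD.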

The target in test [4] is T4, FcγRIIIa. The experiment in a line: ratio of SPR KDs: KD of GpH7-TA7/GpH7-B78/GpL16-k0 divided by KD of this antibody. An excerpt:
First, it was considered which H chain should be introduced with Y296W. GpH7-TA52 (SEQ ID NO: 44) resulting from the introduction of the mutation Y296W into GpH7-TA7 was constructed, and expressed and prepared in combination with GpH7-B78 according to the method described in Reference Example 1. Furthermore, GpH7-TA58 (SEQ ID NO: 45) resulting from the introduction of Y296W into GpH7-B78 was constructed, and expressed and prepared in combination with GpH7-TA22 according to the method described in Reference Example 1. To assess the effects of combinations with Y296W, the prepared antibodies were compared for the FcγRIIIa-binding activity according to the method described in Reference Example 2 (Table 16).
(§2) Analysis of interaction between objective antibody and the FcγR was carried out using Biacore T100 (GE Healthcare). HBS-EP+ (GE Healthcare) was used as the running buffer, and the measurement temperature was set to 25° C. Chips produced by immobilizing the antigen peptide by the amine coupling method to a Series S Sencor Chip CM5 (GE Healthcare), or alternatively, chips produced by allowing preliminarily biotinylated antigen peptides to interact with and immobilize onto a Series S Sensor Chip SA (certified) (GE Healthcare) were used. Antibodies of interest were captured onto an antigen peptide-immobilized chip, and allowed to interact to each FcγR diluted with running buffer. To regenerate and repeatedly use the chip, the antibodies captured on the chip were washed off by reacting 10 mM glycine-HCl, pH 1.5.

Test [5] addresses T4, FcγRIIIa. Described as above. The method, then:
as §2
Specifically, to calculate association rate constant ka (L/mol/s) and dissociation rate constant kd (1/s), sensorgrams obtained by measurement were processed for global fitting by Biacore Evaluation Software using 1:1 Langmuir binding model and dissociation constant KD (mol/1) was calculated from the resulting values.
This is another data set of the same source.

Test [6] addresses T4, FcγRIIIa. The experiment in a line: ratio of SPR KDs: KD of GpH7-A5/GpH7-B3/GpL16-k0 divided by KD of this antibody. The method in brief: as §1

Read-outs that look alike come from different tables or passages of the source.

T4 sequence (P08637 17-208): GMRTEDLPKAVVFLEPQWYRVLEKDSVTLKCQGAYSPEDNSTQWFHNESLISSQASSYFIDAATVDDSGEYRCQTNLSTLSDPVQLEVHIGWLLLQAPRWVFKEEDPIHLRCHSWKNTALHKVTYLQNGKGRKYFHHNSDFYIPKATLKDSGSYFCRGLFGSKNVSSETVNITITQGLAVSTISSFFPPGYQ

B1: IL6R-BP253/IL6R-L (antibody, human IgG1, kappa)
heavy: QVQLQESGPGLVKPSETLSLTCAVSGHSISHDHAWSWVRQPPGEGLEWIGFISYSGITNYNPSLQGRVTISRDNSKNTLYLQMNSLRAEDTAVYYCARSLARTTAMDYWGEGTLVTVSSASTKGPSVFPLAPSSKSTSGGTAALGCLVKDYFPEPVTVSWNSGALTSGVHTFPAVLQSSGLYSLSSVVTVPSSSLGTQTYICNVNHKPSNTKVDKKVEPKSCDKTHTCPPCPAPELLGGPSVFLFPPKPKDTLMISRTPEVTCVVVDVEHEDPEVKFNWYVDGVEVHNAKTKPREEQYNSTYRVVSVLTVLHQDWLNGKEYKCKVSNKAFPAPIEKTISKAKGQPREPQVYTLPPSRDELTKNQVSLTCLVKGFYPSDIAVEWESNGQPENNYKTTPPVLDSDGSFFLYSKLTVDKSRWQQGNVFSCSVMHEALHNHYTQESLSLSP
light: not shown
notes: Homodimerized antibody
For B1, in the test with FcgRIIb [1], the “KD(IIaR)/KD(IIb)” value was 0.3. The “Relative KD (KD of IL6R-B3/IL6R-L divided by KD of the variant)” value with FcgRIIaR is 480; with FcgRIIb [2], 349; with FcgRIIaH, 0.9.

B2: IL6R-AP002/IL6R-BP256/IL6R-L (antibody, human IgG1, kappa)
heavy 1: QVQLQESGPGLVKPSETLSLTCAVSGHSISHDHAWSWVRQPPGEGLEWIGFISYSGITNYNPSLQGRVTISRDNSKNTLYLQMNSLRAEDTAVYYCARSLARTTAMDYWGEGTLVTVSSASTKGPSVFPLAPSSKSTSGGTAALGCLVKDYFPEPVTVSWNSGALTSGVHTFPAVLQSSGLYSLSSVVTVPSSSLGTQTYICNVNHKPSNTKVDKKVEPKSCDKTHTCPPCPAPDLLGDDSVFLFPPKPKDTLMISRTPEVTCVVVDVSDEDGEVKFNWYVDGVEVHNAKTKPREEQYNSTYRVVSVLTVLHQDWLNGKEYKCKVSNKALPRPIEKTISKAKGQPREPQVYTLPPSRKELTKNQVSLTCLVKGFYPSDIAVEWESNGQPENNYKTTPPVLDSDGSFFLYSKLTVDKSRWQQGNVFSCSVMHEALHNRYTQKSLSLSP
heavy 2: QVQLQESGPGLVKPSETLSLTCAVSGHSISHDHAWSWVRQPPGEGLEWIGFISYSGITNYNPSLQGRVTISRDNSKNTLYLQMNSLRAEDTAVYYCARSLARTTAMDYWGEGTLVTVSSASTKGPSVFPLAPSSKSTSGGTAALGCLVKDYFPEPVTVSWNSGALTSGVHTFPAVLQSSGLYSLSSVVTVPSSSLGTQTYICNVNHKPSNTKVDKKVEPKSCDKTHTCPPCPAPDLLGDDDVFLFPPKPKDTLMISRTPEVTCVVVDVSDEDGEVKFNWYVDGVEVHNAKTKPREEQYNSTYRVVSVLTVLHQDWLNGKEYKCKVSNKALPRPIEKTISKAKGQPREPQVYTLPPSRDELTKNQVSLTCLVKGFYPSDIAVEWESNGQPENNYKTTPPVLDSDGSFFLYSKLTVDKSRWQQGNVFSCSVMHEALHNHYTQESLSLSP
light: not shown
notes: Heterodimerized antibody (two different H chains, same variable region), S239D in one H chain only
As to B2, the “KD(IIaR)/KD(IIb)” value with FcgRIIb [1] is 34.3. For the same molecule, the “Relative KD (KD of IL6R-B3/IL6R-L divided by KD of the variant)” value was 7.7 with FcgRIIaR, 752 with FcgRIIb [2] and 0.2 with FcgRIIaH.

B3: IL6R-AP002/IL6R-BP257/IL6R-L (antibody, human IgG1, kappa)
heavy 1: QVQLQESGPGLVKPSETLSLTCAVSGHSISHDHAWSWVRQPPGEGLEWIGFISYSGITNYNPSLQGRVTISRDNSKNTLYLQMNSLRAEDTAVYYCARSLARTTAMDYWGEGTLVTVSSASTKGPSVFPLAPSSKSTSGGTAALGCLVKDYFPEPVTVSWNSGALTSGVHTFPAVLQSSGLYSLSSVVTVPSSSLGTQTYICNVNHKPSNTKVDKKVEPKSCDKTHTCPPCPAPDLLGDDSVFLFPPKPKDTLMISRTPEVTCVVVDVSDEDGEVKFNWYVDGVEVHNAKTKPREEQYNSTYRVVSVLTVLHQDWLNGKEYKCKVSNKALPRPIEKTISKAKGQPREPQVYTLPPSRKELTKNQVSLTCLVKGFYPSDIAVEWESNGQPENNYKTTPPVLDSDGSFFLYSKLTVDKSRWQQGNVFSCSVMHEALHNRYTQKSLSLSP
heavy 2: QVQLQESGPGLVKPSETLSLTCAVSGHSISHDHAWSWVRQPPGEGLEWIGFISYSGITNYNPSLQGRVTISRDNSKNTLYLQMNSLRAEDTAVYYCARSLARTTAMDYWGEGTLVTVSSASTKGPSVFPLAPSSKSTSGGTAALGCLVKDYFPEPVTVSWNSGALTSGVHTFPAVLQSSGLYSLSSVVTVPSSSLGTQTYICNVNHKPSNTKVDKKVEPKSCDKTHTCPPCPAPDLLGDDEVFLFPPKPKDTLMISRTPEVTCVVVDVSDEDGEVKFNWYVDGVEVHNAKTKPREEQYNSTYRVVSVLTVLHQDWLNGKEYKCKVSNKALPRPIEKTISKAKGQPREPQVYTLPPSRDELTKNQVSLTCLVKGFYPSDIAVEWESNGQPENNYKTTPPVLDSDGSFFLYSKLTVDKSRWQQGNVFSCSVMHEALHNHYTQESLSLSP
light: not shown
notes: Heterodimerized antibody (two different H chains, same variable region), S239E in one H chain only
For the molecule B3, in the test with FcgRIIb [1], the “KD(IIaR)/KD(IIb)” value amounted to 27.7. The results for the “Relative KD (KD of IL6R-B3/IL6R-L divided by KD of the variant)” value in the test with FcgRIIaR, with FcgRIIb [2] and with FcgRIIaH were 8.3, 657 and 0.2, respectively.

B4: GpH7-TA7/GpH7-B78/GpL16-k0 (antibody, human IgG1, kappa)
heavy 1: QVQLVQSGAEVKKPGASVTVSCKASGYTFTDYEMHWIRQPPGEGLEWIGAIDPKTGDTAYSESFQDRVTLTADKSTSTAYMELSSLTSEDTAVYYCTRFYSYTYWGQGTLVTVSSASTKGPSVFPLAPSSKSTSGGTAALGCLVKDYFPEPVTVSWNSGALTSGVHTFPAVLQSSGLYSLSSVVTVPSSSLGTQTYICNVNHKPSNTKVDKKVEPKSCDKTHTCPPCPAPEYLWGPSVFLFPPKPKDTLMISRTPEVTCVVVDVSHEDPEVKFNWYVDGVEVHNAKTKPREEQYNATYRVVSVLTVLHQDWLNGKEYKCKVSNKALPAPIEKTISKAKGQPREPQVYTLPPSRKELTKNQVSLTCLVKGFYPSDIAVEWESNGQPENNYKTTPPVLDSDGSFFLYSKLTVDKSRWQQGNVFSCSVMHEALHNRYTQKSLSLSP
heavy 2: QVQLVQSGAEVKKPGASVTVSCKASGYTFTDYEMHWIRQPPGEGLEWIGAIDPKTGDTAYSESFQDRVTLTADKSTSTAYMELSSLTSEDTAVYYCTRFYSYTYWGQGTLVTVSSASTKGPSVFPLAPSSKSTSGGTAALGCLVKDYFPEPVTVSWNSGALTSGVHTFPAVLQSSGLYSLSSVVTVPSSSLGTQTYICNVNHKPSNTKVDKKVEPKSCDKTHTCPPCPAPELLGGPDVFLFPPKPKDTLMISRTPEVTCVVVDVSHEDPEVKFNWYVDGVEVHNAKTKPREEQYNSTYRVVSVLTVLHQDWLNGKEYKCKVSNKALPLPEEKTISKAKGQPREPQVYTLPPSRDELTKNQVSLTCLVKGFYPSDIAVEWESNGQPENNYKTTPPVLDSDGSFFLYSKLTVDKSRWQQGNVFSCSVMHEALHNHYTQESLSLSP
light: DIVMTQSPLSLPVTPGEPASISCQASESLVHSNRNTYLHWYLQKPGQSPQLLIYKVSNRFSGVPDRFSGSGSGTDFTLKISRVEAEDVGVYYCSQNTHVPPTFGQGTKVEIERTVAAPSVFIFPPSDEQLKSGTASVVCLLNNFYPREAKVQWKVDNALQSGNSQESVTEQDSKDSTYSLSSTLTLSKADYEKHKVYACEVTHQGLSSPVTKSFNRGEC
notes: Anti-glypican-3 IgG1 heterodimer; L234Y/G236W/S298A in H1, S239D/A330L/I332E in H2
In the case of B4, the “KD ratio 1” value with FcγRIIIa [3] was determined as 261 fold. For the same molecule, the KD ratio with FcγRIIIa [4] and with FcγRIIIa [5] was 1 fold throughout. In addition, the “KD ratio 2” value with FcγRIIIa [6] was 347 fold.

For the origin of these results see patent publication US20150344570A1 (published 2015).
